How the values were obtained:
Test in all cases: fluorescence polarization
Conditions in all cases: no NAD+, 250 mM NaCl; Kd: 5 nM probe, 12 mM HEPES pH 8.0, 250 mM NaCl, 4% glycerol, 5.7 mM beta-mercaptoethanol, 0.05 mg/ml BSA, 30 min RT. Competition: 40 nM PARP1, 20 nM probe …
PARP1 H862D H862D = PARP1 H862D H862D (UniProt P09874)
PARP1 WT = PARP1 WT (UniProt P09874)
PARP1 H862A H862A = PARP1 H862A H862A (UniProt P09874)
PARP1 E988K E988K = PARP1 E988K E988K (UniProt P09874)
Chain of PARP1 E988K E988K (P09874 whole entry E988K): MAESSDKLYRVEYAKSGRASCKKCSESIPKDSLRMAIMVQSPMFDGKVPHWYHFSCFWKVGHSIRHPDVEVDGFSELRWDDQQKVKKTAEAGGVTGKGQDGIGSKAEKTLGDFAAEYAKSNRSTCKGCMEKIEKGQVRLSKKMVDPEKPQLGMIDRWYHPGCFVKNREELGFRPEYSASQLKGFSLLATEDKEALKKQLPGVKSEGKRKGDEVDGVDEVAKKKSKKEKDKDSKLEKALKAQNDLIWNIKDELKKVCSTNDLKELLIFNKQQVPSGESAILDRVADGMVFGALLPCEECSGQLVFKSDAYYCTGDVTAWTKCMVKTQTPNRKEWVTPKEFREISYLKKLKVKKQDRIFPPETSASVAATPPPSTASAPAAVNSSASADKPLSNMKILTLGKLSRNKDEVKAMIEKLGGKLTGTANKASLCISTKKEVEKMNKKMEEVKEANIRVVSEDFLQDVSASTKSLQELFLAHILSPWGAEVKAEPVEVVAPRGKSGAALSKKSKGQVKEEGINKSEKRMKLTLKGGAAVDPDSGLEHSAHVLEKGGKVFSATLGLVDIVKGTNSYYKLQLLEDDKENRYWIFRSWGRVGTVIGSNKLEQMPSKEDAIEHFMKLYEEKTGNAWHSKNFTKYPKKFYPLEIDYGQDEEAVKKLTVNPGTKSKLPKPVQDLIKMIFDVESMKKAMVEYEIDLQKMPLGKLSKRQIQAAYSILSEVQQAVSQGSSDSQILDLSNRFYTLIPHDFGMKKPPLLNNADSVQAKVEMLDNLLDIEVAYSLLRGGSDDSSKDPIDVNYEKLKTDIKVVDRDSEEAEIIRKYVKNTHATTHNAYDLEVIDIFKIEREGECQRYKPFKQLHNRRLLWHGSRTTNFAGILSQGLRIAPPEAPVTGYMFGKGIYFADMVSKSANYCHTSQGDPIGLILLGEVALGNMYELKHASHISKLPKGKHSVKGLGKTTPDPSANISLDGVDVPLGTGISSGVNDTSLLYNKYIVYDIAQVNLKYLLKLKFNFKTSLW

Chain of PARP1 H862A H862A (P09874 whole entry H862A): as the sequence (P09874 whole entry E988K) above, with H862A, K988E counted along it
Chain of PARP1 WT (P09874 whole entry): as the sequence (P09874 whole entry E988K) above, with K988E counted along it
Chain of PARP1 H862D H862D (P09874 whole entry H862D): as the sequence (P09874 whole entry E988K) above, with H862D, K988E counted along it

GCTGAGCTTCTGGTGAAGCTCAGCTCGCGGCAGCTGGTGCTGCCGCGA [nicked dumbbell DNA (SSB probe)]
Kd (PARP1 H862D H862D): 11.2 nM
Kd (PARP1 WT): 122 nM
Kd (PARP1 H862A H862A): 176 nM
Kd (PARP1 E988K E988K): 7.4 nM

From paper PMC7515702
